From US20170183639

Test system: YFP-CD2 (CD2 expressed in LLC-PK1 cells as a yellow fluorescent protein fused protein)

Src kinase of LLC-PK1 cells
basal Src activity measured as Y418 phosphorylation: CD2 expression does increase basal Src activity in this manner as compared with a control cell line
